{"source": "paper PMC8528929", "molecular_target": "biotinylated SARS-CoV-2 RBD (SARS-CoV-2) (UniProt P0DTC2)", "experiment": "flow cytometry on antigen-coated beads"}
{"binder": "12H2 (antibody, V domains shown) VH: EVQLQESGPGLVKPSQSLFLTCTVTGYSITSDYAWNWIRQFPGNKLEWMGYITYSGSTSYNPSLKSRISITRDTSKNQFFLQLNSVTTEDTATYYCARGDGYFFPLDYWGQGTTLTVSS VL: DIVMTQSPSSLSVSAGEKVTMSCKSSQSLLNSGNQKSYLAWYQQRPGQPPKLLIYGASTRESGVPDRFTGSGSGTDFTLTISSVQAEDLAVYYCQNDHSYPPTFGAGTKLELK", "values": [{"measurement": "EC50", "result": 0.066, "unit": "nM"}]}
{"binder": "13I1 (antibody, V domains shown) VH: EVQLQESGPGLVKPSQSLSLTCTVTGYSITSDYAWNWIRQFPGNKLEWMGYITYSGSTSYNPSLRSRISITRDTSKNQFFLQLNSVTSEDTATYYCARGDGYYFPLDYWGQGTTLTVSS VL: DIVMTQSPSSLSVSAGEKVTMSCKSSQSLLNGGNQKSYLAWYQQKPGQPPKLLIYGASTRESGVPDRFTGSGSGTDFTLTISSVQAEDLAVYYCQNDHSYPPTFGAGTKLELK", "values": [{"measurement": "EC50", "result": 0.082, "unit": "nM"}]}
